Assay results: the supplement of paper PMC9876800

Test system: peptide library, one residue held at a place counted from the S/T acceptor
Assay: relative phosphorylation of the sub-library (ratio to the mean residue at this position); higher = residue favoured
In short: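 Relative sub-library phosphorylation, a ratio to the mean residue at that position, was obtained by phosphorimaging and densitometry of spots on streptavidin membranes. Before capture, purified recombinant kinases were incubated for 90 min under kinase-specific conditions with 50 μM biotinylated degenerate peptide sub-libraries and 50 μM ATP spiked with γ-32P-ATP. Each sub-library fixed one residue at one position around a central Ser/Thr.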

Sequence of BRSK1, construct: Full length, human (Q8TDC3 whole entry, looked up): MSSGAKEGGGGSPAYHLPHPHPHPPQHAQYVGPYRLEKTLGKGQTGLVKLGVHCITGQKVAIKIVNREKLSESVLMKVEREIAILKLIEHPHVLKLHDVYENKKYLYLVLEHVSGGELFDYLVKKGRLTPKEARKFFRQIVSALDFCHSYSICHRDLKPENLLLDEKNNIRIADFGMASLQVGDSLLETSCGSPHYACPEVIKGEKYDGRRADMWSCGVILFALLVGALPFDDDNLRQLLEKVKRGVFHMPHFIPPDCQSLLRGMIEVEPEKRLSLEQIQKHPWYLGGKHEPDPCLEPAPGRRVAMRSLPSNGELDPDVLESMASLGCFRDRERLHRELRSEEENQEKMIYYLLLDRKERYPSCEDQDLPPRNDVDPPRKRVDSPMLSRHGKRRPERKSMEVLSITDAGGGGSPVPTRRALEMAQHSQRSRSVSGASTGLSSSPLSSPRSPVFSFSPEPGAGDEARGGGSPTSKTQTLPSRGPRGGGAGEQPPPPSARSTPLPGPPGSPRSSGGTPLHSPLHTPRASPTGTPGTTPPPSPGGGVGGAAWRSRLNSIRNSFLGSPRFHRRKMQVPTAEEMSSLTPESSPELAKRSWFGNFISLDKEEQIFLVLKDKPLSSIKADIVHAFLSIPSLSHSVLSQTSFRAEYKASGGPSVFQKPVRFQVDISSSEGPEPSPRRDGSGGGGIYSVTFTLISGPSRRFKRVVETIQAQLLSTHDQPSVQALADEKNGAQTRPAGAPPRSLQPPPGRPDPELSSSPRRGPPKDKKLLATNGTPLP
Sequence of CAMK2B, construct: Full length, human (Q13554 whole entry, looked up): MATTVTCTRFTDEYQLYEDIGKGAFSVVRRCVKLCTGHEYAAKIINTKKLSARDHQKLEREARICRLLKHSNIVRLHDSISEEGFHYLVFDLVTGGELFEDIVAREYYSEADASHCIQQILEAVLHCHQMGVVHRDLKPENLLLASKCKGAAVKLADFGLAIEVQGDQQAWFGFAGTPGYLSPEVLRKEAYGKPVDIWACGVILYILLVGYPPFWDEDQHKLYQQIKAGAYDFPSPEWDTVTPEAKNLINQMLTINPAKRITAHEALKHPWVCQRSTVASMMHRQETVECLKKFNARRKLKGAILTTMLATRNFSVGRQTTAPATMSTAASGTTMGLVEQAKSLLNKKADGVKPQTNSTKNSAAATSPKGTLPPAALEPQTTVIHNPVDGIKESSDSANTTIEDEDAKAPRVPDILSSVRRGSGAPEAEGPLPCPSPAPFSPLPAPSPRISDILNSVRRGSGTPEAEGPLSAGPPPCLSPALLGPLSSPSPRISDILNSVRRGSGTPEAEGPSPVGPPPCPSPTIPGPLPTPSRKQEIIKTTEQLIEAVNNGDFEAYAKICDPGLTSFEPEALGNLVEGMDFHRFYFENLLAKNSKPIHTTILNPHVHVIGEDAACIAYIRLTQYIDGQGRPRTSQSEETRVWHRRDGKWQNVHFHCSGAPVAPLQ
Sequence of CAMK1G, construct: aa4-312, human (Q96NX5 4-312, looked up): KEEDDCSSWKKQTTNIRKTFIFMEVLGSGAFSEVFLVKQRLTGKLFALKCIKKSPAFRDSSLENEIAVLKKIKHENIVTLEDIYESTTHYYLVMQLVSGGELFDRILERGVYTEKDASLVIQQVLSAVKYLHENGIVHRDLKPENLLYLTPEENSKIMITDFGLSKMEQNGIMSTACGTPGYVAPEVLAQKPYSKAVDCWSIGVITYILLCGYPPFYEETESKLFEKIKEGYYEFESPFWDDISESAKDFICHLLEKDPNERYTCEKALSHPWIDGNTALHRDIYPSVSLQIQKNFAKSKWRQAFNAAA

BRSK1, construct: Full length, human (from UniProt Q8TDC3)
relative phosphorylation
Details	at +1	at +2	at +3	at +4	at -1	at -2	at -3	at -4	at -5
A fixed	0.673	0.575	0.697	0.51	1.03	2.4	0.781	1.28	1.05
D fixed	0.631	0.801	2.83	0.644	0.813	0.773	0.334	0.552	0.451
E fixed	0.649	0.672	0.947	0.556	0.748	0.6	0.374	0.678	0.494
F fixed	1.67	1.41	1.4	1.09	0.72	1.04	0.522	0.648	1.12
G fixed	0.458	0.349	0.67	0.572	1.24	1.12	0.616	1.29	0.961
H fixed	0.966	1.64	1.02	0.623	1.08	1	1.1	1.19	0.765
I fixed	0.636	0.435	0.353	3.13	0.494	0.534	0.235	0.422	0.943
K fixed	0.703	0.256	0.669	0.597	1.24	1.25	2.41	2.03	1.25
L fixed	1.12	0.672	0.529	2.95	0.951	0.476	0.32	0.56	1.09
M fixed	3.06	0.841	0.614	1.67	1.17	0.627	0.546	0.829	1.55
N fixed	1.08	1.1	2.82	0.835	0.94	0.902	0.596	0.699	0.637
P fixed	0.306	0.467	0.32	0.628	1.53	0.735	0.673	1.48	0.939
Q fixed	1.18	1.13	1.15	0.714	0.996	0.734	0.755	0.985	0.829
R fixed	0.985	0.357	0.729	0.575	1.34	1.7	6.17	2.19	2.01
V fixed	0.73	0.381	0.405	0.861	0.75	1.01	0.311	0.678	0.857
W fixed	0.787	2.02	0.804	0.59	0.696	1.12	0.667	0.774	0.911
Y fixed	1.37	3.9	1.04	0.465	1.26	0.984	0.586	0.726	1.14
pThr fixed	1.81	0.59	0.438	0.686	0.407	0.465	0.392	0.723	0.544
pTyr fixed	0.633	0.948	0.928	0.475	1.75	0.606	0.657	0.678	0.776

CAMK1G, construct: aa4-312, human (from UniProt Q96NX5)
relative phosphorylation
Details	at +1	at +2	at +3	at +4	at -1	at -2	at -3	at -4	at -5
A fixed	0.642	0.76	0.621	0.551	0.799	0.862	0.549	0.716	0.628
D fixed	0.415	0.664	0.754	0.687	0.868	0.426	0.285	0.428	0.451
E fixed	0.379	0.584	0.709	0.651	0.562	0.421	0.274	0.548	0.424
F fixed	2.19	0.959	1.5	1.69	0.634	0.743	0.545	0.916	1.01
G fixed	0.693	0.541	0.763	0.665	0.98	0.927	0.395	0.754	0.628
H fixed	0.691	1.37	1.2	0.846	0.991	0.867	0.602	1.08	0.879
I fixed	0.442	1.1	0.904	1.09	0.554	0.413	0.413	0.913	1.26
K fixed	2.37	1.51	1.22	1.02	2.43	1.64	1.95	2.49	1.38
L fixed	0.51	1.09	1.08	1.99	0.684	0.554	0.506	0.979	2.03
M fixed	0.931	0.968	1.01	1.43	0.723	1.02	0.68	0.936	1.29
N fixed	0.894	1.18	1.41	0.972	1.71	1.03	0.48	0.833	0.656
P fixed	0.305	0.403	0.435	0.747	1.17	0.386	0.343	0.496	0.933
Q fixed	1.27	0.908	0.969	0.986	1.05	2.24	0.777	0.936	0.84
R fixed	3.15	1.78	1.53	1.1	1.97	3.14	7.64	2.06	2.08
V fixed	0.463	0.892	0.642	0.67	0.675	0.483	0.366	0.754	0.818
W fixed	0.896	1.08	1.28	1.05	0.575	1.13	0.617	1.17	0.692
Y fixed	0.756	1.22	0.981	0.856	0.63	0.712	0.581	0.991	0.982
pThr fixed	0.933	1.57	0.938	1.1	0.856	0.667	0.447	0.759	0.579
pTyr fixed	0.717	4.89	1.31	0.992	0.749	0.652	0.486	0.704	0.774

CAMK2B, construct: Full length, human (from UniProt Q13554)
relative phosphorylation
Details	at +1	at +2	at +3	at +4	at -1	at -2	at -3	at -4	at -5
A fixed	0.454	0.673	1.07	0.895	0.744	1.02	0.589	0.903	0.883
D fixed	0.842	4.46	2.37	2.5	1.57	0.86	0.527	0.849	0.702
E fixed	1.45	3.53	2.59	2.45	1.32	1.05	0.627	1.21	0.659
F fixed	2.27	0.366	0.6	0.619	0.736	0.523	0.58	0.852	1.19
G fixed	0.573	0.828	1.26	1.09	1.06	1.46	0.774	1.04	0.836
H fixed	0.758	0.895	0.881	0.893	1.15	1.1	1.03	1.04	0.803
I fixed	1.52	0.405	0.575	0.529	0.482	0.336	0.325	0.729	1.08
K fixed	0.457	0.32	0.489	0.459	1.01	0.848	2.02	1.29	0.791
L fixed	1.1	0.332	0.729	0.506	0.738	0.367	0.382	0.707	1.71
M fixed	1.52	0.426	0.648	0.612	0.948	1.01	0.652	1.07	1.12
N fixed	0.837	1.3	1.13	1.05	1.48	1.38	0.929	0.983	0.749
P fixed	0.295	0.525	0.932	1.43	1.45	0.471	1.11	1.03	1.05
Q fixed	1.43	1.1	1.14	1.02	1.41	3.49	1.22	1.14	0.893
R fixed	0.566	0.381	0.438	0.458	0.795	1.06	4.44	1.3	1.16
V fixed	1.42	0.467	0.62	0.638	0.592	0.388	0.365	0.815	1.2
W fixed	0.534	0.397	0.701	0.983	0.486	0.992	0.758	0.958	1.16
Y fixed	0.988	0.593	0.827	0.882	1.03	0.651	0.679	1.09	1.03
pThr fixed	1.72	1.39	1.97	3.94	0.586	0.581	0.708	0.806	0.783
pTyr fixed	1.76	4.63	1.88	2.72	1.75	0.651	0.664	0.835	0.902
